Here are results for one molecule from paper PMC10069731 (Communications Biology, 2023).

In assay [1] the target is SARS-CoV-2 Omicron BA.4/5 RBD (SARS-CoV-2 Omicron BA.4/5, strain). In words: BLI. The following applies: both partners purified.
In assay [2] the target is SARS-CoV-2 WT spike ECD, 6P-stabilized (SARS-CoV-2, WT (ancestral), UniProt P0DTC2, stabilised). In words: ELISA. The following applies: both partners purified. On the technique in general: In an ELISA, binding on a coated surface is turned into a signal by an enzyme label.

B1: rabbit monoclonal antibody (RmAb) 1H1, IgG (antibody, V domains shown)
VH: QSLEESGGDLVKPGASLTLTCTASGFSFSSGYDMCWVRQAPGKGLEWIACIGTGSSGNIYYASWAKGRFTISKTSSTTVTLQMTSLTAADTATYFCARDDADYAGPDYFNLWGPGTLVTVSS
VL: DIVMTQTPASVSEPVGGTVTIKCQASESISNWLAWYQQKPGQPPKLLIYAAFTLASGVPSRFKGSGSGTQFTLTINGVECADAATYYCQQTYSSRDVDNVFGGGTEVVVK
For B1, in assay [1], the Kd (as a rule, a measure of binding affinity in units of concentration) was found to be 1.33 nM. Further, in assay [2], the binding result is listed as “binds”.
